Experimental data taken from paper PMC5424161.

Conditions: O-GlcNAc at T241

Row | Substance | degradation_or_half_life | other
1 | YAP (Yes-associated protein): OGT knockdown (shRNA) | decreases | –
2 | YAP (Yes-associated protein): T241A | decreases | increases
